B1: LF: Lactoferrin (LF) is an 80 kDa glycoprotein that exists in mucosal secretions from exocrine glands and neutrophil granules (protein, UniProt P02788 20-710, looked up)
Lactotransferrin: GRRRSVQWCAVSQPEATKCFQWQRNMRKVRGPPVSCIKRDSPIQCIQAIAENRADAVTLDGGFIYEAGLAPYKLRPVAAEVYGTERQPRTHYYAVAVVKKGGSFQLNELQGLKSCHTGLRRTAGWNVPIGTLRPFLNWTGPPEPIEAAVARFFSASCVPGADKGQFPNLCRLCAGTGENKCAFSSQEPYFSYSGAFKCLRDGAGDVAFIRESTVFEDLSDEAERDEYELLCPDNTRKPVDKFKDCHLARVPSHAVVARSVNGKEDAIWNLLRQAQEKFGKDKSPKFQLFGSPSGQKDLLFKDSAIGFSRVPPRIDSGLYLGSGYFTAIQNLRKSEEEVAARRARVVWCAVGEQELRKCNQWSGLSEGSVTCSSASTTEDCIALVLKGEADAMSLDGGYVYTAGKCGLVPVLAENYKSQQSSDPDPNCVDRPVEGYLAVAVVRRSDTSLTWNSVKGKKSCHTAVDRTAGWNIPMGLLFNQTGSCKFDEYFSQSCAPGSDPRSNLCALCIGDEQGENKCVPNSNERYYGYTGAFRCLAENAGDVAFVKDVTVLQNTDGNNNEAWAKDLKLADFALLCLDGKRKPVTEARSCHLAMAPNHAVVSRMDKVERLKQVLLHQQAKFGRNGSDCPDKFCLFQSETKNLLFNDNTECLARLHGKTTYEKYLGPQYVAGITNLKKCSTSPLLEACEFLRK
B2: nitrated LF: LF nitrated with sodium peroxynitrite at ONOO-/Tyr molar ratios of 10/1 and 40/1 (protein, UniProt P02788 20-710, looked up)
Lactotransferrin: B1 Lactotransferrin
modifications: tyrosine nitration by peroxynitrite

How the values were obtained:
E. coli (ATCC 25922) = test: standard broth dilutions susceptibility test, read at 600 nm; type: cell-based
Method: The following methods were used to conduct the experiments described in Examples 1-3, below: The experiments were conducted using the standard broth dilutions susceptibility test (Jorgensen, J. H.; Turnidge, J. D., Susceptibility test methods: dilution and disk diffusion methods. In Manual of Clinical Microbiology, Eleventh Edition, American Society of Microbiology: 2015; pp 1253-73). Briefly, 1 μl of glycerol stock aliquot of E. coli (ATCC 25922) was inculcated into Tryptic Soya agar (TSA) (Sigma Aldrich 22091) plates and incubated at 37° C. for 24 hrs. Subsequently, 3-5 separate colonies were selected and transferred into 4 ml Tryptic Soya broth (TSB) (Sigma Aldrich 22092) and incubated at 37° C. for 24 hrs. After incubation, samples were diluted 4 ml into 50 ml TSB to make E. coli stock. 200 μl samples were then placed into wells of a 96-microwell plate. All samples were prepared in TSB, (Blank) using TSB, ERGO (OXIS International), LF (Sigma Aldrich) and NLF were diluted to 1 mg/ml. The nitration reaction was prepared following the method reported by Selzle et al (Determination of nitration degrees for the birch pollen allergen Bet v 1. Analytical and Bioanalytical Chemistry 2013, 405(27):8945-49). According to this procedure, 400 μl aliquots of 5.0 mg/ml (±5%) LF in aqueous solution were pipetted into glass vials. […] Using the plate reader (Tecan Infinite, M1000 PRO). […]

[1] = ferrous iron (Fe++) binding capacity of LF; conditions: following sodium peroxinitrite-induced nitration of the iron-containing form of the protein
From the text: As noted above, LF binds ferrous iron (Fe++) and controls iron distribution throughout the body and its ability to bind to inflammatory and other cell membranes and impact the activities of these cells through its iron binding activities and other mechanisms. The inventors hypothesized that the antibacterial effect may be linked to the iron binding activity of LF and that this antibacterial effect may be disrupted by nitration.
However, sodium peroxinitrite caused changes that went far beyond the mere nitration of a few tyrosine residues to include destruction of tyrosine and tryptophan which at least in part were converted to unidentified reaction products. Nitration can occur as a consequence of the formation of reactive nitrogen species in the body and as a result of drug or chemical reactions, and/or environmental toxins in polluted air, water, or other routes of intake.

Molecule	growth of E. coli (E. coli (ATCC 25922); LF 1 mg/ml or 2 mg/ml, ERGO 5 mM or 50 mM, compared to growth of E. coli without additions, FIGS. 1A and 1B)	iron-binding capacity of LF [1]	inhibition of growth of E. coli by previously nitrated LF (E. coli (ATCC 25922); LF nitrated with sodium peroxynitrite, compared to native (non-nitrated) LF)
B1	reduced the growth of E. coli	remained intact	
B2			did not inhibit the growth of E. coli as much as adding native (non-nitrated) LF

Reference: patent publication US11957737B2, “Methods of treating microbial infection and inflammation” (Colorado Seminary, Owner and Operator of University of …, priority 2017, dated 2024)
